In US20230110188A1 (ARGENX IIP, published 2023):

T1: Rhesus monkey MuSK (recombinant, streptavidine and Flag tag) (rhesus monkey, UniProt O15146 24-495 (human entry))
T1 construct: also called Rhesus MuSK; not shown: streptavidine and Flag tag
T1 chain: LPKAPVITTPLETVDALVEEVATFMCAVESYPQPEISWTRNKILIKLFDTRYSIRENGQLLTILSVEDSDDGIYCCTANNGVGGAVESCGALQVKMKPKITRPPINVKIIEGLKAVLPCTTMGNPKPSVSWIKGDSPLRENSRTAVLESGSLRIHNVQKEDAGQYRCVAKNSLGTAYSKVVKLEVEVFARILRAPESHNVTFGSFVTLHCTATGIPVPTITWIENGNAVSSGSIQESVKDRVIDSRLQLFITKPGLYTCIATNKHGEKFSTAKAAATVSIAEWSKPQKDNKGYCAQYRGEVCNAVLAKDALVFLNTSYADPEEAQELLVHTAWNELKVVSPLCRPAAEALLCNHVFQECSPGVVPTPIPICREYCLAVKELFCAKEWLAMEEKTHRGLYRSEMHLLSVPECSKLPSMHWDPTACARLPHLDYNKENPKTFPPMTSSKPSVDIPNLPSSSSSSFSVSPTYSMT

T2: Mouse MuSK (recombinant, streptavidine and Flag tag) (mouse, UniProt Q61006 22-494)
T2 construct: not shown: streptavidine and Flag tag
T2 sequence: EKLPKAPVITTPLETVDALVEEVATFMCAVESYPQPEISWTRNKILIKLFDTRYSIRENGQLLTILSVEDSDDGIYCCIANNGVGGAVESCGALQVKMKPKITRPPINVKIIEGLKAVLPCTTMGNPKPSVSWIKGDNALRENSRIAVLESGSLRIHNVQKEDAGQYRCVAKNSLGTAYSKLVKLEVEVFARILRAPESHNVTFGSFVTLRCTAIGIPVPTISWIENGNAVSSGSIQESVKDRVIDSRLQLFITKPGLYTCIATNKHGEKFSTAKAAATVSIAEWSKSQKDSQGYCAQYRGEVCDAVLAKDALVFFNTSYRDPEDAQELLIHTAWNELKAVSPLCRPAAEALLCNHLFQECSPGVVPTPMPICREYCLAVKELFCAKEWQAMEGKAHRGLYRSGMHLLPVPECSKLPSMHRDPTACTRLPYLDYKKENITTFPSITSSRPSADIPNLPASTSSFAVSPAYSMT

T3: Human MuSK (R&D Systems, cat. 10189-MK, histidine tag) (human, UniProt O15146 24-495)
T3 construct: Bought protein; also called human monomeric MuSK-6xhis; not shown: histidine tag (6xhis)
T3 sequence: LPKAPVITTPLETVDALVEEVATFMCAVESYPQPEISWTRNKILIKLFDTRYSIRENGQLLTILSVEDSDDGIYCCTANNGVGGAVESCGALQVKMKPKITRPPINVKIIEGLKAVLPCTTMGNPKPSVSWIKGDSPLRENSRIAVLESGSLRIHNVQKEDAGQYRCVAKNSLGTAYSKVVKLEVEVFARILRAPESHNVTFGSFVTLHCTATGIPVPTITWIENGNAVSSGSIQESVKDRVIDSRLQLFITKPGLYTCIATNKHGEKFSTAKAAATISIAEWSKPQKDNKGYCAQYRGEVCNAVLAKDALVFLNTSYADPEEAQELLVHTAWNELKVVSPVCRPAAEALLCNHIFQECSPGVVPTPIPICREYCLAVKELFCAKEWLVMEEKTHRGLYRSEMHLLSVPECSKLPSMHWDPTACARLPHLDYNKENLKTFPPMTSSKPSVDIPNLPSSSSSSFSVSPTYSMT

T4: human monomeric MuSK FLAG streptavidin (in house produced, batch 27-6-2019) (human, UniProt O15146 24-495)
T4 construct: also called full length MuSK; not shown: FLAG and streptavidin tags
T4 sequence: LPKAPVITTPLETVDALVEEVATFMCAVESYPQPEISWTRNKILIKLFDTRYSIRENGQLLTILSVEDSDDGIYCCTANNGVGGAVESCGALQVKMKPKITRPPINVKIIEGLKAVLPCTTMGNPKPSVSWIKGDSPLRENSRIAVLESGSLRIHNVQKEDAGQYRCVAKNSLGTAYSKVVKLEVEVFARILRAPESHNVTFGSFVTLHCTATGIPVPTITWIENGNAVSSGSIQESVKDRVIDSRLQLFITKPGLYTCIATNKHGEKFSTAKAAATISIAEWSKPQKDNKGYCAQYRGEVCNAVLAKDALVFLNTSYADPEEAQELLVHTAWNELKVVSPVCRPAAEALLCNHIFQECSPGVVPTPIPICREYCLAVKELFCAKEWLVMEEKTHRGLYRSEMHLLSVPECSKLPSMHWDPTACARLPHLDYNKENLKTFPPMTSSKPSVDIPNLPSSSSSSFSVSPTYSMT


Assays:
[1] = target: T1, Rhesus monkey MuSK (recombinant, …); assay: SPR (Biacore), antibody captured on anti-hFc chip, MuSK injected 0.3125-10 nM
Method: (§1) The affinity of 3D10a, 4D3, 3F6c and 3D9b for human, rhesus monkey and mouse MuSK was tested in Biacore using the setup shown in FIG. 3. […] The affinities are very high keeping in mind that MuSK was added here in solution, allowing only for monovalent binding (affinity versus avidity).

[2] = target: T2, Mouse MuSK (recombinant, streptavidine …); assay: as above
Method: as §1

[3] = target: T3, Human MuSK (R&D Systems, cat. 10189-MK, …); assay: as above
Method: as §1

[4] = target: T4, human monomeric MuSK FLAG streptavidin …; assay: epitope binning ELISA (coated anti-MuSK Fab, MuSK, IgG, anti-Fc HRP); competitor: 3B5wt
Method: For epitope binning—An ELISA plate was coated at 1 μg/ml of the anti-MuSK Fabs and incubated overnight at 4° C. Next, the plate was wash with PBS followed by blocking with 1% casein in PBS for one hour. After washing the plate, 1 μg/ml of human monomeric MuSK (in house produced, batch 27-6-2019) was incubated for one hour at RT. The plate was washed and anti-MuSK antibodies at 0.3-10 μg/ml were added to the plate and incubated for one hour at RT. After washing the plate, detection antibody (goat anti-human Fc HRP (Jackson Immunoresearch cat. 109-035-098)) was added at 5000 fold dilution in PBS 0.1% casein. The plate was incubated for one hour at RT and washed with PBS-T. TMB was added and the reaction was stopped by adding H2504. […]
For the epitope binning ELISA, a plate was coated with anti-MuSK Fab and human monomeric MuSK was added after blocking the plate. Next the different antibodies were added and allowed to bind.

[5] = target: T3, Human MuSK (R&D Systems, cat. 10189-MK, …); assay: SPR (Biacore), MuSK-coated chip presaturated with 500 nM 4D3 (competitor)
Method: A chip was coated with ˜5000 RU of human MuSK (Lot nr DHUCO 11908A, batch nr 1089_MK). In a first experiment the saturating concentration of the pre-leads was determined. This is the concentration where the amplitude of a specific pre-lead doesn't increase anymore when additional pre-lead is injected on the immobilized MuSK.

[6] = target: T3, Human MuSK (R&D Systems, cat. 10189-MK, …); assay: SPR (Biacore), antibody captured on anti-hFc chip; 0.3125 nM; dissociation pH 5.5
From the text: (§2) In order to study pH dependent binding of our antibodies to MuSK, the Biacore was used with the same setup as described in the paragraph entitled “Binding affinity for mouse, human and rhesus monkey recombinant MuSK in Biacore”. 6. […] For the other antibodies there is no real difference observed between pH 7.4 and 5.5.

[7] = target: T3, Human MuSK (R&D Systems, cat. 10189-MK, …); assay: SPR (Biacore), antibody captured on anti-hFc chip; 10 nM; dissociation pH 5.5
From the text: as §2

| Kd [1] [nM] | Kd [2] [nM] | Kd [3] [nM] | OD 450 nm [4] [OD] | amplitude of prelead after presaturating MuSK (RU) [5] [RU] | extra amplitude (%) [5] [%] | normalized extra amplitude (%) [5] [%] | koff [6] [s⁻¹] | koff [7] [s⁻¹] | Binder |
| --- | --- | --- | --- | --- | --- | --- | --- | --- | --- |
| 0.21 | 0.1 | 0.16 | 2.12 | 68 | 7.2 | 1.9 | 6e-05 | 0.00011 | 3D10a (antibody, human IgG1, kappa, L234A L235A, V domains shown) VH: EVQLVESGGGLVKPGGSLRLSCAASGFTFSASTMAWVRQAPGKGLEWVSSVSGDSHHIYYADSLKGRFTISRDNAKNSLYLQMNSLRAEDTAVYYCARERLLRLGVGFDSWGQGTLVTVSS VL: DIQMTQSPSSLSASVGDRVTITCRASQRISGFVNWYQQKPGKAPKLLIYAASTLQSGVPSRFSGSGSGTDFTLTISSLQPEDFATYYCQQSYSPLYTFGQGTKLEIKR |
| 0.28 | 0.14 | 0.17 | 2.66 | 163 | 14.9 | 9.6 | 3e-05 | 4e-05 | 3D9b (antibody, human IgG1, kappa, L234A L235A, V domains shown) VH: EVQLVESGGGLVKPGGSLRLSCAASGFTFSTYTMHWVRQAPGKGLEWVSSISSRSAYKYYADSVKGRFTISRDNAKNSLYLQMNSLRAEDTAVYYCARDFFQLGPPRFDSWGQGTLVTVSS VL: DIQMTQSPSSLSASVGDRVTITCRASQRISSFLNWYQQKPGKAPKLLIYGASNLQSGVPSRFSGSGSGTDFTLTISSLQPEDFATYYCQQSYSPSYTFGQGTKLEIKR |
| 0.13 | 0.03 | 0.05 | 2.2 | 59 | 5.8 | 0.6 | 0.00023 | 0.00023 | 3F6c (antibody, human IgG1, kappa, L234A L235A, V domains shown) VH: EVQLVESGGGLVKPGGSLRLSCAASGFTFSSYTMDWVRQAPGKGLEWVSSIGSNGDYIYYADSVRGRFTISRDNAKNSLYLQMNSLRAEDTAVYYCARGQLAVAGTHFDYWGQGTLVTVSS VL: DIQMTQSPSSLSASVGDRVTITCRASQKVNKYVNWYQQKPGKAPKLLIYAASTLQSGVPSRFSGSGSGTDFTLTISSLQPEDFATYYCQQSYSPLSTFGQGTKLEIKR |
| 0.31 | 0.17 | 0.26 | 0.882 | 45 | 5.2 | 0 | 0.00018 | 0.00019 | 4D3 (antibody, human IgG1, kappa, L234A L235A, V domains shown) VH: EVQLVESGGGLVKPGGSLRLSCAASGFTFSSYTMTWVRQAPGKGLEWVSSISSGGHYIYYTDSLKGRFTISRDNAKNSLYLQMNSLRAEDTAVYYCARERLLRLGVGFDFWGQGTLVTVSS VL: DIQMTQSPSSLSASVGDRVTITCRASQSISGYLNWYQQKPGKAPKLLIYAASTLQSGVPSRFSGSGSGTDFTLTISSLQPEDFATYYCQQSYSALYTFGQGTKLEIKR |
